Test results as given in US20250011363A1, “OPTIMIZED SHORTENED PEPTIDE THAT BINDS TO ACETYLCHOLINE RECEPTOR, AND USE THEREOF” (SKINMED CO., LTD., priority 2021, published 2025).

These binders were tested against acetylcholine receptor (assay: SPR, AchR immobilized on CM5 chip, peptide at 10 uM).

Q: How did the Binding affinity (RU) turn out when RYCKK [5mer-1023] was run?
A: Its Binding affinity (RU) is 13 RU.

Q: Which Binding affinity (RU) does the source give for RQIRRR [6mer-2-400] here?
A: Its Binding affinity (RU) is 154 RU.

Q: With KYTMR [5mer-1016] as the binder, how does the Binding affinity (RU) read?
A: The Binding affinity (RU) was 28 RU.

Q: With KNHKK [5mer-722] as the binder, how does the Binding affinity (RU) read?
A: The Binding affinity (RU) was 33 RU.

Q: KTTAK [5mer-724] was tested. Which Binding affinity (RU) did it give?
A: Its Binding affinity (RU) is 14 RU.

Q: Which Binding affinity (RU) does the source give for KCDNK [5mer-1010] here?
A: The Binding affinity (RU) was 16 RU.

Q: Which Binding affinity (RU) does the source give for RDADR [5mer-1004] here?
A: Its Binding affinity (RU) is 30 RU.

Q: With KCCVK [5mer-1013] as the binder, how does the Binding affinity (RU) read?
A: The Binding affinity (RU) was 19 RU.

Q: With RDMMR [5mer-1007] as the binder, how does the Binding affinity (RU) read?
A: The Binding affinity (RU) was 30 RU.

Q: RHAKK [5mer-705] was tested. Which Binding affinity (RU) did it give?
A: Its Binding affinity (RU) is 15 RU.

Q: With RTHGR [5mer-1005] as the binder, how does the Binding affinity (RU) read?
A: The Binding affinity (RU) was 30 RU.

Q: How did the Binding affinity (RU) turn out when KIDNK [5mer-1024] was run?
A: Its Binding affinity (RU) is 26 RU.

Q: How did the Binding affinity (RU) turn out when RINVR [5mer-737] was run?
A: Its Binding affinity (RU) is 13 RU.

Q: With KEHVR [5mer-1035] as the binder, how does the Binding affinity (RU) read?
A: The Binding affinity (RU) was 19 RU.

Q: Which Binding affinity (RU) does the source give for KATMK [5mer-726] here?
A: Its Binding affinity (RU) is 33 RU.

Q: With KIEAK [5mer-707] as the binder, how does the Binding affinity (RU) read?
A: The Binding affinity (RU) was 32 RU.

Q: How did the Binding affinity (RU) turn out when KEKAR [5mer-710] was run?
A: Its Binding affinity (RU) is 21 RU.

Q: How did the Binding affinity (RU) turn out when KIMWR [5mer-732] was run?
A: The Binding affinity (RU) was 22 RU.

Q: Which Binding affinity (RU) does the source give for KITHK [5mer-1021] here?
A: The Binding affinity (RU) was 26 RU.

Q: How did the Binding affinity (RU) turn out when KHCWR [5mer-1000] was run?
A: The Binding affinity (RU) was 20 RU.

Q: With KTDMK [5mer-1011] as the binder, how does the Binding affinity (RU) read?
A: The Binding affinity (RU) was 25 RU.

Q: With KEDNK [5mer-1002] as the binder, how does the Binding affinity (RU) read?
A: Its Binding affinity (RU) is 12 RU.

Q: How did the Binding affinity (RU) turn out when RHTIR [5mer-709] was run?
A: Its Binding affinity (RU) is 27 RU.

Q: For KMDAR [5mer-727], which Binding affinity (RU) is on record?
A: The Binding affinity (RU) was 31 RU.

Q: How did the Binding affinity (RU) turn out when KTKFK [5mer-999] was run?
A: The Binding affinity (RU) was 19 RU.

Q: How did the Binding affinity (RU) turn out when KDSNR [5mer-1008] was run?
A: Its Binding affinity (RU) is 11 RU.

Q: With KADIK [5mer-1029] as the binder, how does the Binding affinity (RU) read?
A: Its Binding affinity (RU) is 25 RU.

Q: KCKFR [5mer-717] was tested. Which Binding affinity (RU) did it give?
A: The Binding affinity (RU) was 20 RU.

Q: With RMTVR [5mer-1003] as the binder, how does the Binding affinity (RU) read?
A: The Binding affinity (RU) was 11 RU.

Q: RADFK [5mer-712] was tested. Which Binding affinity (RU) did it give?
A: The Binding affinity (RU) was 18 RU.

Q: Which Binding affinity (RU) does the source give for RNADR [5mer-725] here?
A: Its Binding affinity (RU) is 19 RU.

Q: For RPCAK [5mer-714], which Binding affinity (RU) is on record?
A: The Binding affinity (RU) was 32 RU.

Q: With RCWMK [5mer-1015] as the binder, how does the Binding affinity (RU) read?
A: The Binding affinity (RU) was 30 RU.

Q: KFWAK [5mer-1018] was tested. Which Binding affinity (RU) did it give?
A: Its Binding affinity (RU) is 20 RU.

Q: With RNKKK [5mer-718] as the binder, how does the Binding affinity (RU) read?
A: The Binding affinity (RU) was 19 RU.

Q: How did the Binding affinity (RU) turn out when KPKAR [5mer-708] was run?
A: Its Binding affinity (RU) is 20 RU.

Q: Which Binding affinity (RU) does the source give for RHHMR [5mer-1032] here?
A: The Binding affinity (RU) was 23 RU.

Q: For RFKFK [5mer-1019], which Binding affinity (RU) is on record?
A: The Binding affinity (RU) was 28 RU.

Q: With RMAMR [5mer-1028] as the binder, how does the Binding affinity (RU) read?
A: Its Binding affinity (RU) is 28 RU.

Q: KEPER [5mer-1006] was tested. Which Binding affinity (RU) did it give?
A: The Binding affinity (RU) was 17 RU.

Q: With KIADK [5mer-1022] as the binder, how does the Binding affinity (RU) read?
A: The Binding affinity (RU) was 29 RU.

Q: How did the Binding affinity (RU) turn out when KYPKK [5mer-713] was run?
A: Its Binding affinity (RU) is 16 RU.

Q: How did the Binding affinity (RU) turn out when KFCNK [5mer-730] was run?
A: Its Binding affinity (RU) is 27 RU.

Q: Which Binding affinity (RU) does the source give for KINVR [5mer-716] here?
A: Its Binding affinity (RU) is 25 RU.

Q: How did the Binding affinity (RU) turn out when RKNKR [5mer-1014] was run?
A: Its Binding affinity (RU) is 23 RU.

Q: With KMCAK [5mer-1009] as the binder, how does the Binding affinity (RU) read?
A: The Binding affinity (RU) was 29 RU.

Q: How did the Binding affinity (RU) turn out when KKHHR [5mer-736] was run?
A: The Binding affinity (RU) was 24 RU.

Q: KCKVK [5mer-1020] was tested. Which Binding affinity (RU) did it give?
A: Its Binding affinity (RU) is 12 RU.

Q: How did the Binding affinity (RU) turn out when RNAVR [5mer-1026] was run?
A: Its Binding affinity (RU) is 20 RU.

Q: Which Binding affinity (RU) does the source give for KECIK [5mer-711] here?
A: The Binding affinity (RU) was 32 RU.

Q: For REWDK [5mer-1033], which Binding affinity (RU) is on record?
A: Its Binding affinity (RU) is 28 RU.

Q: How did the Binding affinity (RU) turn out when KTCDR [5mer-733] was run?
A: Its Binding affinity (RU) is 23 RU.

Q: Which Binding affinity (RU) does the source give for RKMAK [5mer-706] here?
A: Its Binding affinity (RU) is 27 RU.

Q: For RAWER [5mer-700], which Binding affinity (RU) is on record?
A: The Binding affinity (RU) was 17 RU.

Q: How did the Binding affinity (RU) turn out when RFAKK [5mer-1034] was run?
A: The Binding affinity (RU) was 14 RU.

Q: For KNTNR [5mer-1027], which Binding affinity (RU) is on record?
A: The Binding affinity (RU) was 28 RU.

Q: For KADHK [5mer-731], which Binding affinity (RU) is on record?
A: The Binding affinity (RU) was 18 RU.

Q: RISDK [5mer-1030] was tested. Which Binding affinity (RU) did it give?
A: The Binding affinity (RU) was 18 RU.

Q: For KPCGK [5mer-1001], which Binding affinity (RU) is on record?
A: Its Binding affinity (RU) is 33 RU.

Q: With RYSKK [5mer-721] as the binder, how does the Binding affinity (RU) read?
A: Its Binding affinity (RU) is 22 RU.

Q: For RASPR [5mer-723], which Binding affinity (RU) is on record?
A: The Binding affinity (RU) was 22 RU.

Q: With KKNER [5mer-699] as the binder, how does the Binding affinity (RU) read?
A: Its Binding affinity (RU) is 12 RU.

Q: How did the Binding affinity (RU) turn out when KISER [5mer-719] was run?
A: The Binding affinity (RU) was 21 RU.

Q: With RCTWK [5mer-1017] as the binder, how does the Binding affinity (RU) read?
A: The Binding affinity (RU) was 24 RU.

Q: For RFMGK [5mer-704], which Binding affinity (RU) is on record?
A: Its Binding affinity (RU) is 28 RU.

Q: How did the Binding affinity (RU) turn out when KEPDK [5mer-729] was run?
A: Its Binding affinity (RU) is 23 RU.

Q: With RSILRK [6mer-2-401] as the binder, how does the Binding affinity (RU) read?
A: The Binding affinity (RU) was 153 RU.

Q: With RHCER [5mer-735] as the binder, how does the Binding affinity (RU) read?
A: Its Binding affinity (RU) is 11 RU.

Q: Which Binding affinity (RU) does the source give for KDPKR [5mer-720] here?
A: Its Binding affinity (RU) is 32 RU.

Q: KPHIK [5mer-728] was tested. Which Binding affinity (RU) did it give?
A: Its Binding affinity (RU) is 19 RU.

Q: How did the Binding affinity (RU) turn out when KCNGR [5mer-715] was run?
A: The Binding affinity (RU) was 22 RU.

Q: Which Binding affinity (RU) does the source give for RKEER [5mer-1031] here?
A: The Binding affinity (RU) was 13 RU.

Q: With RHKWK [5mer-1025] as the binder, how does the Binding affinity (RU) read?
A: Its Binding affinity (RU) is 25 RU.

Q: KTHMK [5mer-1036] was tested. Which Binding affinity (RU) did it give?
A: The Binding affinity (RU) was 23 RU.

Q: KISHK [5mer-702] was tested. Which Binding affinity (RU) did it give?
A: Its Binding affinity (RU) is 30 RU.

Q: Which Binding affinity (RU) does the source give for KPNWR [5mer-703] here?
A: Its Binding affinity (RU) is 22 RU.

Q: How did the Binding affinity (RU) turn out when RHKVR [5mer-1012] was run?
A: The Binding affinity (RU) was 22 RU.

Q: With KATER [5mer-734] as the binder, how does the Binding affinity (RU) read?
A: The Binding affinity (RU) was 16 RU.

Q: RNHNK [5mer-701] was tested. Which Binding affinity (RU) did it give?
A: The Binding affinity (RU) was 22 RU.
